Data reported in article PMC6854852.

How the values were obtained:
[1] = tested on: T1, SAN8-rBraR (unphosphorylated) D96V (Staphylococcus aureus SAN8 (nisin A-resistant mutant of MW2)), ORF:7b46c191; assay: competition; settings: EMSA: 5 ng DIG-labeled DNA, rBraR (given as 50 mM) in DIG Gel Shift Kit 2nd Generation (Roche) buffer, 6% native PAGE; binding temperature and pH not stated …
T1 sequence: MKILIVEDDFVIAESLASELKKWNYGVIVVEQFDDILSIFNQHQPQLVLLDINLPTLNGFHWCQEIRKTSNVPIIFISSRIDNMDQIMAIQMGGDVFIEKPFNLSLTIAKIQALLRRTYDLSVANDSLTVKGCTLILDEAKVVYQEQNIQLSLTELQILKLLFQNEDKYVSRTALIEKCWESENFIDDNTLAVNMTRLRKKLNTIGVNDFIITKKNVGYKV

[2] = tested on: T1, SAN8-rBraR (unphosphorylated) D96V (Staphylococcus aureus SAN8 (nisin A-resistant mutant of MW2)), ORF:7b46c191; assay: EMSA; settings: EMSA: 5 ng DIG-labeled DNA, rBraR (given as 50 mM) in DIG Gel Shift Kit 2nd Generation (Roche) buffer, 6% native PAGE; binding temperature and pH not stated …

ATCACTTAGAAAGCACCATTGCTTTTGTCTAATATGTACGATGAATCTGTATCCTCACTCAAAAATCTACTACGTAGCGATAGCTTTCAACTCTGTAAGGTTCAAACATTGAATTGTAAGTTTAGATAAAGGCTACTACTCCAAACATTATTTAAAATGAAATTAAATACAAAAGGAGTGAGACTATGACAATATTATCAGTGCAACATGTTTCAAAAACATACGG (double strand) [vraDE-F1]
binding [1]: binds | binding [2]: binds
